According to article PMC3017772, “The CaaX specificities of Arabidopsis protein prenyltransferases explain era1 and ggb phenotypes” (BMC Plant Biology, 2010):

Assays:
[1] = target: recombinant Arabidopsis protein geranylgeranyltransferase type 1 (PGGT1) (Arabidopsis (ecotype Col-0)) (UniProt Q9LX33)
[2] = target: recombinant Arabidopsis protein farnesyltransferase (PFT) (Arabidopsis (ecotype Col-0)) (UniProt Q9LX33)
Sequence of recombinant Arabidopsis protein farnesyltransferase (PFT) (Arabidopsis (ecotype Col-0)) (Q9LX33 whole entry, chain 1 of 2): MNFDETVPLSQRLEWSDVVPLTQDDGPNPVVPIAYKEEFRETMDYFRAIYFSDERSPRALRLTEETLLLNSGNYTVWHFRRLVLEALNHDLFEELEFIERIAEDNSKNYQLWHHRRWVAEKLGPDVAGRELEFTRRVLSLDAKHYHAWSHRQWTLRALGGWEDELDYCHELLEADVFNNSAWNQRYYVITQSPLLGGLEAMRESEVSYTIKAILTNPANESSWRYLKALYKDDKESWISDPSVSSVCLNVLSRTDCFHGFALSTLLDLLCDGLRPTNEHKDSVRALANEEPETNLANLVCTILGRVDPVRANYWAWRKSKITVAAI
Sequence of recombinant Arabidopsis protein farnesyltransferase (PFT) (Arabidopsis (ecotype Col-0)) (Q38920 whole entry, chain 2 of 2, further chain): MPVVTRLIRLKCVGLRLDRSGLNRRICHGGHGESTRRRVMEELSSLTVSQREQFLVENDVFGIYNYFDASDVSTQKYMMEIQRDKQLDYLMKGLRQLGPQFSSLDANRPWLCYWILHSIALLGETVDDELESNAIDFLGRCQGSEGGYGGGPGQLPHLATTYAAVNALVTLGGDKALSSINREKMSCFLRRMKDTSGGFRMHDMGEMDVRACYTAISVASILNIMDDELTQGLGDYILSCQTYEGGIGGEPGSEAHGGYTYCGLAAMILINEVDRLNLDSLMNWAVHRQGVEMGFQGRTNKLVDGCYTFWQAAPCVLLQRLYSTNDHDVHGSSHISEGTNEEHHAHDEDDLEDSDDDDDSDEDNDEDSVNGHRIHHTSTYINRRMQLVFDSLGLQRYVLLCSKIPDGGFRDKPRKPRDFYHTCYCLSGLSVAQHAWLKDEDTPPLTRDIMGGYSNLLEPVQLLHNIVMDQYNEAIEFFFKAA

Sequence of recombinant Arabidopsis protein geranylgeranyltransferase type 1 (PGGT1) (Arabidopsis (ecotype Col-0)) (Q9LX33 whole entry, chain 1 of 2): as the sequence (Q9LX33 whole entry, chain 1 of 2) above
Sequence of recombinant Arabidopsis protein geranylgeranyltransferase type 1 (PGGT1) (Arabidopsis (ecotype Col-0)) (O80642 whole entry, chain 2 of 2, further chain): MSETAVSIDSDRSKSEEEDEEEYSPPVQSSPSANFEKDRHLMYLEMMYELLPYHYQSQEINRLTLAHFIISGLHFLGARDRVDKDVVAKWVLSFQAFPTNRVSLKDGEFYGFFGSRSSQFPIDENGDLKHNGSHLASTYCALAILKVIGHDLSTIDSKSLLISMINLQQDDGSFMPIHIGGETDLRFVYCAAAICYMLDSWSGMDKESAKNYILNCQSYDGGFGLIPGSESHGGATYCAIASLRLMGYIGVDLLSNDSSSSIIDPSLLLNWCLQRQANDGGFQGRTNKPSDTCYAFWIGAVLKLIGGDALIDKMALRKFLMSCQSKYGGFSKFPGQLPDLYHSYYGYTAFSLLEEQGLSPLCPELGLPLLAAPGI

GFP-BD-CVII
Km for the CaaX protein substrate; in vitro prenylation by purified PGGT1 with [1-3H]geranylgeranyl diphosphate, Lineweaver-Burk analysis [1]: 19 µM | Km for the CaaX protein substrate; in vitro prenylation by purified PFT with [1-3H]farnesyl diphosphate, Lineweaver-Burk analysis [2]: 6.9 µM

GFP-BD-CVIL
Km for the CaaX protein substrate; in vitro prenylation by purified PGGT1 with [1-3H]geranylgeranyl diphosphate, Lineweaver-Burk analysis [1]: 17.2 µM | Km for the CaaX protein substrate; in vitro prenylation by purified PFT with [1-3H]farnesyl diphosphate, Lineweaver-Burk analysis [2]: 7 µM

GFP-BD-CVIM
Km for the CaaX protein substrate; in vitro prenylation by purified PGGT1 with [1-3H]geranylgeranyl diphosphate, Lineweaver-Burk analysis [1]: 5.8 µM | Km for the CaaX protein substrate; in vitro prenylation by purified PFT with [1-3H]farnesyl diphosphate, Lineweaver-Burk analysis [2]: 5.4 µM

GFP-BD-CVIQ
Km for the CaaX protein substrate; in vitro prenylation by purified PGGT1 with [1-3H]geranylgeranyl diphosphate, Lineweaver-Burk analysis [1]: 3.5 µM | Km for the CaaX protein substrate; in vitro prenylation by purified PFT with [1-3H]farnesyl diphosphate, Lineweaver-Burk analysis [2]: 5.5 µM
